Source: patent publication US20240270866A1 (Alector, published 2024)

T1: mouse SIRPA overexpressed on CHO cells (mouse, UniProt P97797 32-513)
T1 construct: also called CHO-muSIRPA
T1 sequence: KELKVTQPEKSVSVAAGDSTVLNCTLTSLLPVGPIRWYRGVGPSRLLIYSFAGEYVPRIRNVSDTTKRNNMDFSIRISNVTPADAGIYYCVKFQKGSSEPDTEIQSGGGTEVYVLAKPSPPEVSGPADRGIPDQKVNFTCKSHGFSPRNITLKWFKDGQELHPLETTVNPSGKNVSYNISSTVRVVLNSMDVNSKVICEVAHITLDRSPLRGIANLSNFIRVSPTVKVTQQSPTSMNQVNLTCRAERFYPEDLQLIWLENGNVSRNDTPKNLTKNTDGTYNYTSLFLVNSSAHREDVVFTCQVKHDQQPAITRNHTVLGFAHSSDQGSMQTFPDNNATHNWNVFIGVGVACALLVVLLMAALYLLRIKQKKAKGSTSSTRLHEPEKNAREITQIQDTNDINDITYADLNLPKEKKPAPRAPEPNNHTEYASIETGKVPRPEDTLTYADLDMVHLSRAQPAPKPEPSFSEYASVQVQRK

T2: Mouse SIRPA D1 Fc (mouse, UniProt P97797 32-150, limits assumed)
T2 sequence: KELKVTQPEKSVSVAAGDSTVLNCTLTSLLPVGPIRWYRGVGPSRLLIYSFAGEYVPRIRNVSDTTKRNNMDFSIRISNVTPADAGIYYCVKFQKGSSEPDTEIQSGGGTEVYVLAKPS


Key:
[1] = target: T3, human SIRPβ1 Fc fusion antigen (human, UniProt O00241 30-371); assay: ForteBio IgG avid;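 note: ForteBio sensor-based avid binding of anti-SIRPA antibodies in IgG format, with the binding partner in solution at 100 nM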
T3 construct: not shown: human IgG1 Fc

[2] = target: T4, human SIRPA Fc fusion antigen (human, UniProt P78324 31-373); assay: ForteBio IgG avid;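 note: ForteBio sensor-based avid binding of anti-SIRPA antibodies in IgG format, with the binding partner in solution at 100 nM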
T4 construct: heterologous signal peptide; not shown: human IgG1 Fc

[3] = target: T1, mouse SIRPA overexpressed on CHO cells; assay: flow, CHO-muSIRPA;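 for relative MFI: antibody binding measured by flow cytometry: cells stained with 1 ug/ml test antibody for 1 h on ice, detected with PE-labelled secondary antibody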
[4] = target: Human SIRPb D1 Fc (human, UniProt O00241 30-148, limits assumed); assay: ForteBio IgG avid;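 note: antibody IgG captured on AHQ biosensors, then 100 nM Fc-fused SIRP antigen applied for 3 min, followed by 3 min buffer dissociation, kinetics fitted to a 1:1 model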
[5] = target: T2, Mouse SIRPA D1 Fc; assay: ForteBio IgG avid;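 note: antibody IgG captured on AHQ biosensors, then 100 nM Fc-fused SIRP antigen applied for 3 min, followed by 3 min buffer dissociation, kinetics fitted to a 1:1 model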
[6] = target: T5, human SIRPA overexpressed on CHO cells (human, UniProt P78324 31-504); assay: flow, CHO-huSIRPA;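 note: Anti-SIRPA antibodies applied at 1 µg/mL for 1 h on ice, binding read by flow cytometry using a PE-labelled secondary antibody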
T5 construct: also called CHO-huSIRPA

[7] = target: T1, mouse SIRPA overexpressed on CHO cells; assay: flow, CHO-muSIRPA; remark: listed apart in the source;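 for relative MFI: antibody binding measured by flow cytometry: cells stained with 1 ug/ml test antibody for 1 h on ice, detected with PE-labelled secondary antibody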

T3 sequence (O00241 30-371 limits assumed): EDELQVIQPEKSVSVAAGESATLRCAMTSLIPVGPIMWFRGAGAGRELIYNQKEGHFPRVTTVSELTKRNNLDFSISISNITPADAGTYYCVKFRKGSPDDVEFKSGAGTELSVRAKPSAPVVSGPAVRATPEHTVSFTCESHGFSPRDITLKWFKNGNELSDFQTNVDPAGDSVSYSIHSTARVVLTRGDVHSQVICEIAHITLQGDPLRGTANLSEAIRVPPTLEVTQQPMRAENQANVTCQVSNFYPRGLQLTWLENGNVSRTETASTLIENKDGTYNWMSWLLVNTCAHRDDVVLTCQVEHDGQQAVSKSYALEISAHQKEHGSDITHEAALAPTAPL
Human SIRPb D1 Fc, sequence (O00241 30-148 limits assumed): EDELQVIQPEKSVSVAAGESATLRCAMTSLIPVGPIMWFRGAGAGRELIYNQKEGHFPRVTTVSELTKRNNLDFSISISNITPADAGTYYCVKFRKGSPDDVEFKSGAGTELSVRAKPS

| Binder | Kd [1] [nM] | Kd [2] [nM] | other results |
| --- | --- | --- | --- |
| SA-19-72 (antibody, V domains shown, IgG) VH: QVQLVESGGGVVQPGRSLGLSCAASGFTFSSYAMHWVRQAPGKGLEWVAGILYDGSNKYYADSVKGRFTISRDNSKNTLYLQMNSLRAEDTAVYYCARSNEKYTLGFAFDIWGQGTMVTVSS VL: not shown | 4.75 | 1.1 | – |
| SA-19-80 (antibody, V domains shown, IgG) VH: EVQLLESGGGVVQPGRSLRLSCAASGFTFSSYGMHWVRQAPGKGLEWVAGILYDGSNKYYADSVKGRFTISRDNSKNTLYLQMDGLRAEDTAVYYCARHSVKYTLGFAFDIWGQGTMVTVSS VL: not shown | 4.25 | 1.41 | – |
| SA-19-75 (antibody, V domains shown, IgG) VH: QVQLVESGGGVVQPGRSLRLSCAASGFTFSSYGMHWVRQAPGKGLEWVAVIAYDGSNKLYADSVKGRFTISRDNSKNTLYLQMNSLRAEDTAVYYCALMRTKYTLGFAFDIWGQGTMVTVSS VL: not shown | 3.13 | 0.537 | – |
| SA-19-74 (antibody, V domains shown, IgG) VH: QVQLVESGGGVVQPGRSLRLSCAASGFAFSSYAMHWVRQAPGKGLEWVAGILYDGSNKYYADSVKGRFTISRDNSKNTLYLQMNSLRAEDTAVYYCARHSQKYTLGFAFDIWGQGTMVTVSS VL: not shown | 4.08 | 0.676 | – |
| SA-19-81 (antibody, V domains shown, IgG) VH: QVQLVESGGGVVQPGRSLRLSCAASGFTSSSYGMHWVRQAPGKGLEWVAVIAYDGSNKLYADSVKGRFTISRDNSKNTLYLQMNSLRAEDTAVYYCARTPTKYTLGFAFDIWGQGTMVTVSS VL: not shown | 2.59 | 0.711 | – |
| SA-19-84 (antibody, V domains shown, IgG) VH: QVQLVESGGGVVQPGRSLRLSCAASGFTFSSYGMHWVRQAPGKGLEWVAVIAYDGSNKLYADSVKGRFTISRDNSKNTLYLQMNSLRAEDTAVYYCARTQLKYTLGFAFDIWGQGTMVTVSS VL: not shown | 2.6 | 0.573 | – |
| SA-19-79 (antibody, V domains shown, IgG) VH: QVQLVESGGGVVQPGRSLRLSCAASGFTFSSYGMHWVRQAPGKGLEWVAVIAYDGSNKIYADSVKGRFTISRDNSKNTLYLQMNSLRAEDTAVYYCATTDTKYTLGFAFDIWGQGTMVTVSS VL: not shown | 1.36 | 0.31 | – |
| SA-19-77 (antibody, V domains shown, IgG) VH: QVQLVESGGGVVQPGRSLRLSCAASGFTFSSYGMAWVRQAPGKGLEWVAQILYDGSNEYYADSVKGRFTISRDNSKNTLYLQMNSLRAEDTAVYYCARDLTKYTLGFAFDIWGQGTMVTVSS VL: not shown | 3.94 | 0.441 | – |
| SA-19-76 (antibody, V domains shown, IgG) VH: QVQLVESGGGVVQPGRSLRLSCAASGFTFSSYGMHWVRQAPGKGLEWVAVIAYDGSNKLYADSVKGRFTISRDNAKNSLYLQMNSPRAEDTAVYYCATMRTKYTLGFAFDIWGQGTMVTVSS VL: not shown | 2.05 | 0.504 | – |
| SA-13 (antibody, V domains shown, IgG; also called SA-13 (parental)) VH: not shown VL: DIQMTQSPSSLSASVGDRVTITCRASQSISSYLNWYQQKPGKAPKLLIYAASSLQSGVPSRFSGSGSGTDFTLTISSLQPEDFATYYCQQGYIYPPTFGGGTKVEIK | 12.3 | – | relative MFI [3]: 0.571 fold over background; Kd [4]: 19.6 nM; binding result [5]: no binding (tested: 100 nM); relative MFI [6]: 59.9 fold over background; binding result [7]: no binding (tested: 1 ug/ml) |
| SA-5-58 (antibody, V domains shown, IgG) VH: EVQLLESGGGLVQPGGSLRLSCAASGFTFDSYAMSWVRQAPGKGLEWVSAISGSGGSTYHADSVKGRFTISRDNSKNTLYLQMNSLRAEDTAVYYCAKDTGISLWSVTPPYFDLWGRGTLVTVSS VL: DIQLTQSPSSVSASVGDRVTITCRASQDISSWLAWYQQKPGKAPKLLIYAASSLQSGVPSRFSGSGSGTDFTLTISSLQPEDFATYYCQQGYIFPRTFGGGTKVEIK | – | 2.78 | binding result [1]: no binding (tested: 100 nM) |
| SA-5-57 (antibody, V domains shown, IgG) VH: EVQLLESGGGLVQPGGSLRLSCAASGFTFDSYAMSWVRQAPGKGLEWVSATSGGGGSTYHADPVKGRFTISRDNSKNTLYLQMNSLRAEDTAVYYCAKDITDDFWSVTPPYFDLWGRGTLVTVSS VL: DIQLTQSPSSVSASVGDRVTITCRASQDISSWLAWYQQKPGKAPKLLIYAASSLQSGVPSRFSGSGSGTDFTLTISSLQPEDFATYYCQQGYIFPRTFGGGTKVEIK | – | 2.61 | binding result [1]: no binding (tested: 100 nM) |
| SA-5-61 (antibody, V domains shown, IgG) VH: EVQLLESGGGLVQPGGSLKLSCAASGFTFDSYAMSWVRQAPGKGLEWVSAISGSGGSTYYADSVKGRFTISRDNSKNTLYLQMNSLRAEDTAVYYCAKDTGIDFWGQYPPYFDLWGRGTLVTVSS VL: DIQLTQSPSSVSASVGDRVTITCRASQDISSWLAWYQQKPGKAPKLLIYAASSLQSGVPSRFSGSGSGTDFTLTISSLQPEDFATYYCQQGYIFPRTFGGGTKVEIK | 9.31 | 2.3 | – |
| SA-8-62 (antibody, V domains shown, IgG) VH: QVQLVESGGGLVKPGGSLRLSCAASGFTFSSYSMHWVRQAPGKGLEWVSSISSSDSWIYYADSVKGRFTISRDNAKNSLYLQMDSLRAEDTAVYYCAKERVDYWHGYGMDVWGQGTTVTVSS VL: not shown | 4.67 | 0.371 | – |
| SA-8-64 (antibody, V domains shown, IgG) VH: QVQLVESGGGLVKPGGSLRLSCAASGFTFSSYSMHWVRQAPGKGLEWVSSISSSDSWIYYADSVKGRFTISRDNAKNSLYLQMNSLRAEDTAVYYCAKEPRSYWHGYGMDVWGQGTTVTVSS VL: not shown | 8.36 | 0.952 | – |

Now from value to binder, other results behind:

| Kd [1] [nM] | Kd [2] [nM] | Binder | other results |
| --- | --- | --- | --- |
| 2.08 | 1.06 | SA-19-78 (antibody, V domains shown, IgG) VH: QVQLVESGGGVVQPGRSLRLSCAASGFTFSSYGMHWVRQAPGKGLEWVAVIAYDGSNKLYADSVKGRFTISRDNSKNTLYLQMDSLRAEDTAVYYCATSDTKYTLGFAFDIWGQGTMVTVSS VL: not shown | – |
| 3.45 | 0.742 | SA-19-82 (antibody, V domains shown, IgG) VH: QVQLVESGGGVVQPGRSLRLSCAASGFTFSSYAMHWVRQAPGKGLEWVAGILYDGSNKYYADSVKGRFTISRDNSKNTLYLQMNSLRAEDTAVYYCARHVLKYTLGFAFDIWGQGTMVTVSS VL: not shown | – |
| 2.95 | 0.71 | SA-19-73 (antibody, V domains shown, IgG) VH: QVQLVESGGGLVQPGGSLRLSCAASGFTFSSYAMHWVRQAPGKGLEWVAGILYDGSNKYYADSVKGRFTISRDNSKNTLYLQMNSLRAEDTAVYYCANSDTKYTLGFAFDIWGQGTMVTVSS VL: not shown | – |
| 2.82 | 0.505 | SA-19-83 (antibody, V domains shown, IgG) VH: QVQLVESGGGVVQPGRSLRLSCAASGFTFDSYLMHWVRQAPGKGLEWVASIIYDGSNKYYADSVKGRFTISRDNSKNTLYLQMNSLRAEDTAVYYCASVRTKYTLGFAFDIWGQGTMVTVSS VL: not shown | – |
| 13.1 | 2.14 | SA-8-66 (antibody, V domains shown, IgG) VH: QVQLVESGGGVVQPGRSLRLSCAASGFTFSSYGMHWVRQAPGKGLEWVAVINGDGSNKYYADSVKGRFTISRDNSKNTLYLQMNSLRAEDTAVYYCAKEPRSYWHGYGMDVWGQGTTVTVSS VL: not shown | – |
| – | 3.03 | SA-5-59 (antibody, V domains shown, IgG) VH: EVQLLESGGGLVQPGGSLRLSCAASGFTFDNYAMSWVRQAPGEGLEWVSAVSGSGGSTYYADSVRGRFTISRDNSKNTLYLQMDSLRAEDTAVYYCAKDTGIDFWARTPPYFDLWGRGTLVTVSS VL: DIQLTQSPSSVSASVGDRVTITCRASQDISSWLAWYQQKPGKAPKLLIYAASSLQSGVPSRFSGSGSGTDFTLTISSLQPEDFATYYCQQGYIFPRTFGGGTKVEIK | binding result [1]: no binding (tested: 100 nM) |
| 3.99 | – | SA-13-69 (antibody, V domains shown, IgG) VH: EVQLLESGGGLVQPGGSLRLSCAASGFTFTEYAMSWVRQAPGKGLEWVSAISGSGGSTYYADSVKARFTISRDNSKNTLYLQMNSLRAEDTAVYYCARDGTQWGPHFYWGQGTLVTVSS VL: DIQMTQSPSSLSASVGDRVTITCRASQSISSYLNWYQQKPGKAPKLLIYAASSLQSGVPSRFSGSGSGTDFTLTISSLQPEDFATYYCQQGYIYPPTFGGGTKVEIK | – |
| 14.2 | 1.84 | SA-8-67 (antibody, V domains shown, IgG) VH: EVQLVESGGGLVKPGGSLRLSCAASGFTFSSYSMHWVRQAPGKGLEWVSSISSSPSHIYYADSVKGRFTISRDNAKNSLYLQMNSLRAEDTAVYYCAKEPRSYWHGYGMDVWGQGTTVTVSS VL: not shown | – |
